Assay results taken from publication PMC7939140.

Biological target: BG505SOSIP.664 gp140 NFL (native flexible linker version of wild type) (HIV-1 (BG505 isolate, clade A))
Assay: native gel or EMSA

BG505SOSIP.664 gp140 NFL (native flexible linker version of wild type) (natural protein)
stoichiometry N: 3
